This is an account of results in publication PMC10786891, “Massively parallel profiling of RNA-targeting CRISPR-Cas13d”.

First the molecules themselves.
B1: target 1 A1U,A14C (mixed)
RNA 1: CACCCGUGCAAAAAUGCAGGGGUCUAAAACUGAGCGGAUAACCUCUCUAUGG
RNA 2: GGGAAUGGAUCCACAUCUACGAAUUCGUACCAUAGAGCGGUUAUCCGCUCUCCGAGAUCGGAAGAGCACACGU
B2: target 1 insC 3' of 18,insU 3' of 12 (mixed)
RNA 1: CACCCGUGCAAAAAUGCAGGGGUCUAAAACUGAGCGGAUAACCUCUCUAUGG
RNA 2: GGGAAUGGAUCCACAUCUACGAAUUCGUACCAUACGAGAGGUUUAUCCGCUCACCGAGAUCGGAAGAGCACACGU
B3: target 1 A1G,A18U (mixed)
RNA 1: CACCCGUGCAAAAAUGCAGGGGUCUAAAACUGAGCGGAUAACCUCUCUAUGG
RNA 2: GGGAAUGGAUCCACAUCUACGAAUUCGUACCAUUGAGAGGUUAUCCGCUCGCCGAGAUCGGAAGAGCACACGU
B4: target 1 G5U,G15U (mixed)
RNA 1: CACCCGUGCAAAAAUGCAGGGGUCUAAAACUGAGCGGAUAACCUCUCUAUGG
RNA 2: GGGAAUGGAUCCACAUCUACGAAUUCGUACCAUAGAUAGGUUAUCCUCUCACCGAGAUCGGAAGAGCACACGU
B5: target 1 insA 3' of 21,insA 3' of 19 (mixed)
RNA 1: CACCCGUGCAAAAAUGCAGGGGUCUAAAACUGAGCGGAUAACCUCUCUAUGG
RNA 2: GGGAAUGGAUCCACAUCUACGAAUUCGUACCAAUAAGAGAGGUUAUCCGCUCACCGAGAUCGGAAGAGCACACGU
B6: target 1 insG 3' of 16,insA 3' of 5 (mixed)
RNA 1: CACCCGUGCAAAAAUGCAGGGGUCUAAAACUGAGCGGAUAACCUCUCUAUGG
RNA 2: GGGAAUGGAUCCACAUCUACGAAUUCGUACCAUAGAGGAGGUUAUCCGACUCACCGAGAUCGGAAGAGCACACGU
B7: target 1 insG 3' of 21,insA 3' of 8 (mixed)
RNA 1: CACCCGUGCAAAAAUGCAGGGGUCUAAAACUGAGCGGAUAACCUCUCUAUGG
RNA 2: GGGAAUGGAUCCACAUCUACGAAUUCGUACCGAUAGAGAGGUUAUACCGCUCACCGAGAUCGGAAGAGCACACGU
B8: target 1 A14C (mixed)
RNA 1: CACCCGUGCAAAAAUGCAGGGGUCUAAAACUGAGCGGAUAACCUCUCUAUGG
RNA 2: GGGAAUGGAUCCACAUCUACGAAUUCGUACCAUAGAGCGGUUAUCCGCUCACCGAGAUCGGAAGAGCACACGU
B9: target 1 insC 3' of 3,insG 3' of 2 (mixed)
RNA 1: CACCCGUGCAAAAAUGCAGGGGUCUAAAACUGAGCGGAUAACCUCUCUAUGG
RNA 2: GGGAAUGGAUCCACAUCUACGAAUUCGUACCAUAGAGAGGUUAUCCGCUCCGACCGAGAUCGGAAGAGCACACGU
B10: target 1 A1C,A18U (mixed)
RNA 1: CACCCGUGCAAAAAUGCAGGGGUCUAAAACUGAGCGGAUAACCUCUCUAUGG
RNA 2: GGGAAUGGAUCCACAUCUACGAAUUCGUACCAUUGAGAGGUUAUCCGCUCCCCGAGAUCGGAAGAGCACACGU
B11: target 1 A18U (mixed)
RNA 1: CACCCGUGCAAAAAUGCAGGGGUCUAAAACUGAGCGGAUAACCUCUCUAUGG
RNA 2: GGGAAUGGAUCCACAUCUACGAAUUCGUACCAUUGAGAGGUUAUCCGCUCACCGAGAUCGGAAGAGCACACGU
B12: target 1 insC 3' of 11,insA 3' of 8 (mixed)
RNA 1: CACCCGUGCAAAAAUGCAGGGGUCUAAAACUGAGCGGAUAACCUCUCUAUGG
RNA 2: GGGAAUGGAUCCACAUCUACGAAUUCGUACCAUAGAGAGGUCUAUACCGCUCACCGAGAUCGGAAGAGCACACGU
B13: target 1 insC 3' of 9,insG 3' of 6 (mixed)
RNA 1: CACCCGUGCAAAAAUGCAGGGGUCUAAAACUGAGCGGAUAACCUCUCUAUGG
RNA 2: GGGAAUGGAUCCACAUCUACGAAUUCGUACCAUAGAGAGGUUACUCCGGCUCACCGAGAUCGGAAGAGCACACGU
B14: target 1 insU 3' of 7,insG 3' of 6 (mixed)
RNA 1: CACCCGUGCAAAAAUGCAGGGGUCUAAAACUGAGCGGAUAACCUCUCUAUGG
RNA 2: GGGAAUGGAUCCACAUCUACGAAUUCGUACCAUAGAGAGGUUAUCUCGGCUCACCGAGAUCGGAAGAGCACACGU
B15: target 1 complement block 4-7 (mixed)
RNA 1: CACCCGUGCAAAAAUGCAGGGGUCUAAAACUGAGCGGAUAACCUCUCUAUGG
RNA 2: GGGAAUGGAUCCACAUCUACGAAUUCGUACCAUAGAGAGGUUAUGGCGUCACCGAGAUCGGAAGAGCACACGU
B16: target 1 G12U,G13A (mixed)
RNA 1: CACCCGUGCAAAAAUGCAGGGGUCUAAAACUGAGCGGAUAACCUCUCUAUGG
RNA 2: GGGAAUGGAUCCACAUCUACGAAUUCGUACCAUAGAGAAUUUAUCCGCUCACCGAGAUCGGAAGAGCACACGU
B17: target 1 insA 3' of 22,insC 3' of 15 (mixed)
RNA 1: CACCCGUGCAAAAAUGCAGGGGUCUAAAACUGAGCGGAUAACCUCUCUAUGG
RNA 2: GGGAAUGGAUCCACAUCUACGAAUUCGUACACAUAGAGCAGGUUAUCCGCUCACCGAGAUCGGAAGAGCACACGU
B18: target 1 insC 3' of 10,insG 3' of 8 (mixed)
RNA 1: CACCCGUGCAAAAAUGCAGGGGUCUAAAACUGAGCGGAUAACCUCUCUAUGG
RNA 2: GGGAAUGGAUCCACAUCUACGAAUUCGUACCAUAGAGAGGUUCAUGCCGCUCACCGAGAUCGGAAGAGCACACGU
B19: target 1 insU 3' of 4,insU 3' of 1 (mixed)
RNA 1: CACCCGUGCAAAAAUGCAGGGGUCUAAAACUGAGCGGAUAACCUCUCUAUGG
RNA 2: GGGAAUGGAUCCACAUCUACGAAUUCGUACCAUAGAGAGGUUAUCCGCUUCAUCCGAGAUCGGAAGAGCACACGU
B20: target 1 C4G,C22U (mixed)
RNA 1: CACCCGUGCAAAAAUGCAGGGGUCUAAAACUGAGCGGAUAACCUCUCUAUGG
RNA 2: GGGAAUGGAUCCACAUCUACGAAUUCGUAUCAUAGAGAGGUUAUCCGGUCACCGAGAUCGGAAGAGCACACGU
B21: target 1 insG 3' of 7,insU 3' of 2 (mixed)
RNA 1: CACCCGUGCAAAAAUGCAGGGGUCUAAAACUGAGCGGAUAACCUCUCUAUGG
RNA 2: GGGAAUGGAUCCACAUCUACGAAUUCGUACCAUAGAGAGGUUAUCGCGCUCUACCGAGAUCGGAAGAGCACACGU
B22: target 1 A9G,U11G (mixed)
RNA 1: CACCCGUGCAAAAAUGCAGGGGUCUAAAACUGAGCGGAUAACCUCUCUAUGG
RNA 2: GGGAAUGGAUCCACAUCUACGAAUUCGUACCAUAGAGAGGGUGUCCGCUCACCGAGAUCGGAAGAGCACACGU
B23: target 1 insU 3' of 17,insG 3' of 9 (mixed)
RNA 1: CACCCGUGCAAAAAUGCAGGGGUCUAAAACUGAGCGGAUAACCUCUCUAUGG
RNA 2: GGGAAUGGAUCCACAUCUACGAAUUCGUACCAUAGUAGAGGUUAGUCCGCUCACCGAGAUCGGAAGAGCACACGU

This data set deals with T1, EsCas13d, nuclease-dead (Eubacterium siraeum, UniProt B0MS50, R295A;H300A;R849A;H854A).
T1 sequence: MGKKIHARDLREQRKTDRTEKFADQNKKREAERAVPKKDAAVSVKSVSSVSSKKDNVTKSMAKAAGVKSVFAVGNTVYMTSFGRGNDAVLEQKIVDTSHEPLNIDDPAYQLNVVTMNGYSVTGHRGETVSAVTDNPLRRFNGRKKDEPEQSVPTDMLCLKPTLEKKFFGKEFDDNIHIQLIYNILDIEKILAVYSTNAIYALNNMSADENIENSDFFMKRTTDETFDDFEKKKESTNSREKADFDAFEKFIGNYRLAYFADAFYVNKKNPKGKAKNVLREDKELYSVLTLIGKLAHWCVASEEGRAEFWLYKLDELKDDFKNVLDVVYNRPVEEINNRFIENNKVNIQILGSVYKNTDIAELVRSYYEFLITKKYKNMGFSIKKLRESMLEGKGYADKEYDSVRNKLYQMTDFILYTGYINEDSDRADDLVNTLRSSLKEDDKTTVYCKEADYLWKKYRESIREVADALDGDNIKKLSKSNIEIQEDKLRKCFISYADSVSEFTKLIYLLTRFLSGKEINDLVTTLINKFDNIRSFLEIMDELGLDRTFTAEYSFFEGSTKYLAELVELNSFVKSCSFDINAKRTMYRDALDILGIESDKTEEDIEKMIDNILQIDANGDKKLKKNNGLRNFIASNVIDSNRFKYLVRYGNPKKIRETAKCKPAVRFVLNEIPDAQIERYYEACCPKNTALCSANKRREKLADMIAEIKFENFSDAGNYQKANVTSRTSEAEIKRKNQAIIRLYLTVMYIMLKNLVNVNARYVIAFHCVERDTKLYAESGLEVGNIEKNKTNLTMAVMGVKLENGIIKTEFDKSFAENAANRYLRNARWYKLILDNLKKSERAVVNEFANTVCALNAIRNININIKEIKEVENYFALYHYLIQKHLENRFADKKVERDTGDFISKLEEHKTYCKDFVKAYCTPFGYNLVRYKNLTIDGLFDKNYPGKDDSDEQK
The data set is described as follows: crRNA (strand 1, pre-loaded); Mg2+; 40 mM Tris-HCl pH 7.5, 150 mM NaCl, 6 mM MgCl2, 1 mM DTT, 0.1% Tween-20, 0.2 mg/ml BSA; 25 C; 10 min per concentration, then washed. Particulars: tags: His6-TwinStrep-SUMO cleaved; N-terminal SNAP kept (SNAP-Surface 488); label: 3' end held by stalled T7 RNA polymerase.
As a reminder, the Kd is the equilibrium constant for the complex coming apart. A lower Kd goes with higher affinity. Molecule B1 showed a Kd of 45 ± 6 nM.
With B2 the figure was 28.6 ± 1.7 nM; with B3, 24.6 ± 1.7 nM.
For the molecule B4, the dissociation constant Kd is 31 ± 4 nM.
For the molecule B5, binding was put at a Kd of 32.2 ± 2.4 nM.
With B6 the figure was 23.5 ± 1.5 nM; with B7, 64 ± 11 nM.
The value for B8 was 31 ± 7 nM.
With B9 the figure was 11.6 ± 0.7 nM; with B10, around 40 nM.
For B11, the equilibrium dissociation constant (Kd) was determined as 26.4 ± 1.2 nM.
The value for B12 was 41.4 ± 3.2 nM; that for B13 was 14.4 ± 1.2 nM; that for B14 was 16.7 ± 1.3 nM.
The value for B15 was 12.6 ± 0.8 nM; that for B16 was 3.99 ± 0.22 nM; that for B17 was 28.5 ± 2.2 nM.
Take B18: the Kd came to 15.7 ± 0.8 nM.
As for B19, the equilibrium dissociation constant (Kd) is 8.56 ± 0.33 nM.
With B20 the figure was 10 ± 2 nM; with B21, 9.6 ± 0.9 nM; with B22, 15.1 ± 0.7 nM.
B23: binding was characterised by a dissociation constant (Kd) of 38 ± 4 nM. This Kd lies about 2.5-fold higher than the previous one.
